Patent US20240166737A1

What was measured:
[1] = target: CD3 epsilon on human T-cells (human) (UniProt P07766); assay: T cell binding
recombinant CD3 = recombinant CD3 (UniProt P07766); assay: SPR
recombinant CD3, sequence (P07766 23-126): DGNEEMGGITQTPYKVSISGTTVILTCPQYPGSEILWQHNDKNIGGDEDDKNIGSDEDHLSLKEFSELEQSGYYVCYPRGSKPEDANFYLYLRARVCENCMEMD

CD3 epsilon on human T-cells (human), sequence (P07766 23-207 limits assumed): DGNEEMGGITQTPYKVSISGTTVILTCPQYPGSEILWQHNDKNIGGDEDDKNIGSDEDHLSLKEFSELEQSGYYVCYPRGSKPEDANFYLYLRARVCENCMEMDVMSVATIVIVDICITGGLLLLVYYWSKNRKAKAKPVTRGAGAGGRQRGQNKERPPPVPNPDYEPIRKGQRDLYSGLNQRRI

EC50 [1]: > 300 nM
Kd (recombinant CD3): 50 to 100 nM
B1: CD3B450-LH-ScFv (scFv, V domains shown, not shown: small tags and cut ends)
VH: QVQLQQSGPGLVKPSQTLSLTCAISGDSVFNNNAAWSWIRQSPSRGLEWLGRTYYRSKWLYDYAVSVKSRITINPDTSKNQFSLQLNSVTPEDTAVYYCARGYSSSFDYWGQGTLVTVSS
VL: QSALTQPASVSGSPGQSITISCTGTSSNIGTYKFVSWYQQHPGKAPKVMIYEVSKRPSGVSNRFSGSKSGNTASLTISGLQAEDEADYYCVSYAGSGTLLFGGGTKLTVL
